Measured values: publication PMC10778704, “Comparative Analysis of Cyclization Techniques in Stapled Peptides: Structural Insights into Protein–Protein Interactions in a SARS-CoV-2 Spike RBD/hACE2 Model System” (International Journal of Molecular Sciences, 2023)
Bridge positions count the residues as written; N and C are the ends. Square brackets hold non-standard residues; d marks the D form. Peptide text beside a SMILES is read from it. S5 = C=CCCC[C@](C)(N)C(=O)O

Columns and labels:
circular dichroism = details: 10 mM Na phosphate; pH 7.4; 25 °C; 100 uM
[1] = 37 °C, comparison in words
in vitro = details: rat, plasma

Row | Compound | helicity (circular dichroism) | Degradation / stability in rat plasma over 24 h [1] | half-life (in vitro)
1 | CC(=O)N[C@@H](CC(=O)O)C(=O)N[C@@H](CCCCN)C(=O)N[C@H]1CC(=O)NCCCC[C@@H](C(=O)N[C@@H](CCC(=O)O)C(=O)N[C@@H](CC(=O)O)C(N)=O)NC(=O)[C@H](CCC(=O)O)NC(=O)[C@H](Cc2c[nH]cn2)NC(=O)[C@H](CC(N)=O)NC1=O (Ac-DKDNHEKED-NH2; lactam 3-7) | 37.2% | – | –
2 | CC(=O)N[C@@H](CC(=O)O)C(=O)N[C@@H](CCCCN)C(=O)N[C@@H]1Cc2cn(nn2)CCCC[C@@H](C(=O)N[C@@H](CCC(=O)O)C(=O)N[C@@H](CC(=O)O)C(N)=O)NC(=O)[C@H](CCC(=O)O)NC(=O)[C@H](Cc2c[nH]cn2)NC(=O)[C@H](CC(N)=O)NC1=O | 5.2% | – | –
3 | CC(=O)N[C@@H](Cc1c[nH]cn1)C(=O)N[C@@H](CCC(=O)O)C(=O)N[C@H]1CC(=O)NCCCC[C@@H](C(=O)N[C@@H](Cc2ccc(O)cc2)C(=O)N[C@@H](CCC(N)=O)C(N)=O)NC(=O)[C@H](CC(C)C)NC(=O)[C@H](CC(=O)O)NC(=O)[C@H](CCC(=O)O)NC1=O (Ac-HEDEDLKYQ-NH2; lactam 3-7) | 35.1% | – | –
4 | Ac-HEAEDLFYQ-NH2 [peptide 2] | – | levels of degradation similar to those of 8-amino acid-long AngII | –
5 | CC(=O)N[C@@H](CC(=O)O)C(=O)N[C@@H](CCCCN)C(=O)N[C@H]1Cn2cc(nn2)CCc2cn(nn2)C[C@@H](C(=O)N[C@@H](CCC(=O)O)C(=O)N[C@@H](CC(=O)O)C(N)=O)NC(=O)[C@H](CCC(=O)O)NC(=O)[C@H](Cc2c[nH]cn2)NC(=O)[C@H](CC(N)=O)NC1=O | 8.2% | – | –
6 | C=CCCC[C@](C)(NC(=O)[C@H](CC(C)C)NC(=O)[C@H](CC(=O)O)NC(=O)[C@H](CCC(=O)O)NC(=O)[C@](C)(CCCC=C)NC(=O)[C@H](CCC(=O)O)NC(=O)[C@H](Cc1c[nH]cn1)NC(C)=O)C(=O)N[C@@H](Cc1ccc(O)cc1)C(=O)N[C@@H](CCC(N)=O)C(N)=O (Ac-HE[S5]EDL[S5]YQ-NH2) | 11% | – | –
7 | CC(=O)N[C@@H](Cc1c[nH]cn1)C(=O)N[C@@H](CCC(=O)O)C(=O)N[C@H]1Cn2cc(nn2)CCc2cn(nn2)C[C@@H](C(=O)N[C@@H](Cc2ccc(O)cc2)C(=O)N[C@@H](CCC(N)=O)C(N)=O)NC(=O)[C@H](CC(C)C)NC(=O)[C@H](CC(=O)O)NC(=O)[C@H](CCC(=O)O)NC1=O | 50.7% | – | –
8 | CC(=O)N[C@@H](Cc1c[nH]cn1)C(=O)N[C@@H](CCC(=O)O)C(=O)N[C@H]1CCCCn2cc(nn2)C[C@H](C(=O)N[C@@H](Cc2ccc(O)cc2)C(=O)N[C@@H](CCC(N)=O)C(N)=O)NC(=O)[C@H](CC(C)C)NC(=O)[C@H](CC(=O)O)NC(=O)[C@H](CCC(=O)O)NC1=O | 18.1% | – | –
9 | CC(=O)N[C@@H](Cc1c[nH]cn1)C(=O)N[C@@H](CCC(=O)O)C(=O)N[C@@H]1Cc2cn(nn2)CCCC[C@@H](C(=O)N[C@@H](Cc2ccc(O)cc2)C(=O)N[C@@H](CCC(N)=O)C(N)=O)NC(=O)[C@H](CC(C)C)NC(=O)[C@H](CC(=O)O)NC(=O)[C@H](CCC(=O)O)NC1=O | 25.7% | – | –
10 | CC(=O)N[C@@H](CC(=O)O)C(=O)N[C@@H](CCCCN)C(=O)N[C@H]1CSCc2ccc(cc2)CSC[C@@H](C(=O)N[C@@H](CCC(=O)O)C(=O)N[C@@H](CC(=O)O)C(N)=O)NC(=O)[C@H](CCC(=O)O)NC(=O)[C@H](Cc2c[nH]cn2)NC(=O)[C@H](CC(N)=O)NC1=O | 5% | – | –
11 | Ac-DKFNHEAED-NH2 [peptide 1] | – | levels of degradation similar to those of 8-amino acid-long AngII | –
12 | CC(=O)N[C@@H](Cc1c[nH]cn1)C(=O)N[C@@H](CCC(=O)O)C(=O)N[C@@]1(C)CCC/C=C/CCC[C@@](C)(C(=O)N[C@@H](Cc2ccc(O)cc2)C(=O)N[C@@H](CCC(N)=O)C(N)=O)NC(=O)[C@H](CC(C)C)NC(=O)[C@H](CC(=O)O)NC(=O)[C@H](CCC(=O)O)NC1=O [peptide 11, Ac-NH-His-Glu-[S5-Glu-Asp-Leu-S5]-Tyr-Gln-CO-NH2] (Ac-HE[S5]EDL[S5]YQ-NH2; staple (E) 3-7) | 53.5% | significantly more stable | 6.8 h
13 | CC(=O)N1CCC[C@H]1C(=O)N[C@@H](CC(=O)O)C(=O)N[C@@H](CCCCN)C(=O)N[C@H]1CCCCNC(=O)C[C@@H](C(=O)N[C@@H](CCC(=O)O)C(=O)N[C@@H](CC(=O)O)C(N)=O)NC(=O)[C@H](CCC(=O)O)NC(=O)[C@H](Cc2c[nH]cn2)NC(=O)[C@H](CC(N)=O)NC1=O (Ac-PDKKNHEDED-NH2; lactam 4-8) | 89.7% | – | –
14 | CC(=O)N[C@@H](CC(=O)O)C(=O)N[C@@H](CCCCN)C(=O)N[C@H]1CCCCNC(=O)C[C@@H](C(=O)N[C@@H](CCC(=O)O)C(=O)N[C@@H](CC(=O)O)C(N)=O)NC(=O)[C@H](CCC(=O)O)NC(=O)[C@H](Cc2c[nH]cn2)NC(=O)[C@H](CC(N)=O)NC1=O [compound 3] (Ac-DKKNHEDED-NH2; lactam 3-7) | 49.9% | – | 2.9 h
15 | CC(=O)N1CCC[C@H]1C(=O)N[C@@H](Cc1c[nH]cn1)C(=O)N[C@@H](CCC(=O)O)C(=O)N[C@H]1CCCCNC(=O)C[C@@H](C(=O)N[C@@H](Cc2ccc(O)cc2)C(=O)N[C@@H](CCC(N)=O)C(N)=O)NC(=O)[C@H](CC(C)C)NC(=O)[C@H](CC(=O)O)NC(=O)[C@H](CCC(=O)O)NC1=O (Ac-PHEKEDLDYQ-NH2; lactam 4-8) | 56.7% | – | –
16 | CC(=O)N[C@@H](CC(=O)O)C(=O)N[C@@H](CCCCN)C(=O)N[C@@]1(C)CCC/C=C\CCC[C@@](C)(C(=O)N[C@@H](CCC(=O)O)C(=O)N[C@@H](CC(=O)O)C(N)=O)NC(=O)[C@H](CCC(=O)O)NC(=O)[C@H](Cc2c[nH]cn2)NC(=O)[C@H](CC(N)=O)NC1=O [peptide 10] (Ac-DK[S5]NHE[S5]ED-NH2; staple (Z) 3-7) | 68.9% | – | 4 h
17 | CC(=O)N[C@@H](Cc1c[nH]cn1)C(=O)N[C@@H](CCC(=O)O)C(=O)N[C@H]1CCCCNC(=O)CC[C@@H](C(=O)N[C@@H](Cc2ccc(O)cc2)C(=O)N[C@@H](CCC(N)=O)C(N)=O)NC(=O)[C@H](CC(C)C)NC(=O)[C@H](CC(=O)O)NC(=O)[C@H](CCC(=O)O)NC1=O (Ac-HEKEDLEYQ-NH2; lactam 3-7) | 4.6% | – | –
18 | CC(=O)N[C@@H](CC(=O)O)C(=O)N[C@@H](CCCCN)C(=O)N[C@@]1(C)CCC/C=C/CCC[C@@](C)(C(=O)N[C@@H](CCC(=O)O)C(=O)N[C@@H](CC(=O)O)C(N)=O)NC(=O)[C@H](CCC(=O)O)NC(=O)[C@H](Cc2c[nH]cn2)NC(=O)[C@H](CC(N)=O)NC1=O (Ac-DK[S5]NHE[S5]ED-NH2; staple (E) 3-7) | 4.7% | – | –
19 | CC(=O)N[C@@H](CC(=O)O)C(=O)N[C@@H](CCCCN)C(=O)N[C@H]1CCCCNC(=O)C[C@@H](C(=O)N[C@@H](CCC(=O)O)C(=O)N[C@@H](CC(=O)O)C(=O)N[C@H]2CCCCNC(=O)C[C@@H](C(N)=O)NC(=O)[C@H](CCC(N)=O)NC(=O)[C@H](Cc3ccc(O)cc3)NC(=O)[C@H](Cc3ccccc3)NC2=O)NC(=O)[C@H](CCC(=O)O)NC(=O)[C@H](Cc2c[nH]cn2)NC(=O)[C@H](CC(N)=O)NC1=O (Ac-DKKNHEDEDKFYQD-NH2; lactam 3-7, 10-14) | 25.2% | – | –
